# Assay results: patent publication US20180273617A1 (AstraZeneca / MedImmune, published 2018)
# Target: T1, human ASCT2 (SLC1A5) (human, UniProt Q15758 1-541)
# T1 sequence (looked up): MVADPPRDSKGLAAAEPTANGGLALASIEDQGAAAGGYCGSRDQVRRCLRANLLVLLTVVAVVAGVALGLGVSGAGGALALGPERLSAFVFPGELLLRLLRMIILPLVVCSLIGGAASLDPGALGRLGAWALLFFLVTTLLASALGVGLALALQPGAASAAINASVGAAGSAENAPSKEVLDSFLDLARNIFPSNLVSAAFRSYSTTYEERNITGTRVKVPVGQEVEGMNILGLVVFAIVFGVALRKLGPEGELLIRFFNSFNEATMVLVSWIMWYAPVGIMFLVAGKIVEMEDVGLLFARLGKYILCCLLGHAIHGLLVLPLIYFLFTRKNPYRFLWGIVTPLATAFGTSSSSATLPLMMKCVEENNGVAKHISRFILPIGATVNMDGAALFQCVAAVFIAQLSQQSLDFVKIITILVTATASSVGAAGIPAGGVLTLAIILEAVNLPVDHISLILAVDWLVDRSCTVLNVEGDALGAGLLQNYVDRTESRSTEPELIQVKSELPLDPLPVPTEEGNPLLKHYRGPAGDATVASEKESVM
# Assay: cell-based or functional assay
binder,measurement,value
"anti-ASCT2 antibody 17c10 conjugated to tubulysin AZ1508 (antibody, V domains shown, tubulysin AZ1508 conjugated to a cysteine by a thiol-maleimide linkage; site not stated for these assays (engineered cysteine 239i or native cysteines)) VH: QVQLQQWGAGLLKPSETLSLTCAVYGGSFSGYYWSWIRQPPGKGLEWIGEIHHSGGANYNPSLKSRVTISVDTSKNQFSLKLTSVTAADTAVYYCARGQGKNWHYDYFDYWGQGTLVTVSS VL: DIQMTQSPSTLSTSVGDRVTLTCRASQSIRSWLAWYQQNPGKAPKLLIYKASILKIGVPSRFSGSGSGTDFTLTITSLQPDDFATYYCQQYYSYSRTFGQGTKVEIK","IC50 (ng/ml), cytotoxic killing of SKMEL-2 cells, ASCT1-shRNA1 knockdown",7.59 ng/mL
same,"IC50 (ng/ml), cytotoxic killing of SKMEL-2 cells, ASCT1-shRNA2 knockdown",4.96 ng/mL
same,"IC50 (ng/ml), cytotoxic killing of SKMEL-2 cells, ASCT2-shRNA knockdown",205 ng/mL
same,"IC50 (ng/ml), cytotoxic killing of SKMEL-2 cells, NTshRNA (non-target control)",14.3 ng/mL
